Measurements taken from patent publication US10919943B2, “Mutant proteins enabling agrochemical control of plant gene expression” (The Regents of the University of California, priority 2016, dated 2021).

B1: PYR1*^-MANDI: PYR1 mutant with 9 mutations, most sensitive to mandipropamid (protein, listed as Arabidopsis thaliana)
chain: MPSELTPEERSELKNSIAEFHTYQLDPGSCSSLHAQRIHAPPELVWSIVRRFDKPQTHRHFIKSCSVEQNFEMRVGCTRDIIVISGLPANTSTERLDILDDERRVTGASIIGGEHRLTNYKGVTTVHRFEKENRIWTVVLESYVVDMPEGNSEDDTRIVVDDVVKLNLQKLATVAEAMARNSGDGSGSQVT

Key:
pUAS_GFP_mandi = assay: Mandipropamid control of transcription, pUAS_GFP_mandi transient assay, anti-GFP Western blot; type: in vivo, N. benthamiana; details: 50 μM mandipropamid, 24 hours; FIG. 14
Procedure: To establish if the orthogonal mandipropamid response module could be used to control transcriptional responses in vivo, we designed an experimental system where PYR1*^-MANDI was fused to the GAL4 AD, and HAB1* fused to its BD. Nuclear export sequences were added to the BD-HAB1* component to reduce its access to the nucleus in the absence of mandipropamid and thereby reduce background transcription from the UAS. The constructs were assembled into a plant transformation vector along with a GAL4-responsive UAS in front of a CaMV minimal promoter driving GFP. The plant transformation vector used was a derivative of pCB308 (Xiang, Han, Lutziger, Wang, & Oliver, 1999) in which a kanamycin resistance marker cassette replaces the vector's centrally located uidA and bar expression cassettes. […]
The resultant construct (pUAS_GFP_mandi) was tested using transient assays in N. benthamiana, as described above. […] 24 hours later, leaf tissue was collected, frozen in liquid N2, and homogenized by bead beating using Precellys instrument (Bertin Technologies), for 6000 rpm for 30 seconds and then resuspended in SDS sample buffer containing protease inhibitor, separated by SDS-PAGE, electro-blotted onto nitrocellulose membrane and detected using an anti-GFP antibody as described in Example 4 above.

HAB1^!-2 = assay: Yeast two hybrid, mandipropamid-promoted interaction of PYR1 variants with HAB1^!-2; type: cell-based
Text: To engineer orthogonal mandipropamid responsiveness, we introduced the PYR1^! mutation into the PYR1^MANDI receptor to create a septuple mutant called PYR1^!-MANDI (PYR1^Y58H;K59R;V81I;F108A;S122G;F159L;T162D). This mutant interacts with HAB1^! and HAB^!-2 in response to low μM mandipropamid in yeast two-hybrid assays, but is ˜100-fold less sensitive than the PYR1^MANDI/HAB1 interaction, which responds to concentrations in the low nM range (FIG. 3).
To improve sensitivity, we mutagenized ligand contacting and interface residues in PYR1^!-MANDI using NNK primers, pooled the mutant libraries, and used the mutagenized receptors in selection experiments using to identify enhancer mutations. The NNK mutagenesis screen targeted the following residues: P55, H60, F61, I62, K63, V83, S85, G86, L87, P88, A89, S92, E94, I110, H115, R116, L117, Y120, E141, P148, G150, N151, D154, D155, T156, M158, A160, V163, V164, L166, N167, and K170. […] Since M158 and A160 flank the […] mutation present in PYR1^MANDI, we inferred that the closely located orthogonalizing T162D mutation in PYR1^!-MANDI may have reduced mandipropamid sensitivity by altering the local structure of the C-terminal α3-helix, which participates in ligand-induced conformational changes needed for PP2C binding (Nishimura et al., 2009). We therefore simultaneously mutagenized positions M158, F159 and A160 using a primer with degenerate NNK codons at all three positions. F159 was included in this mutagenesis because we have previously observed that multiple substitutions at F159 (A,C,I,L,M,T, or V) are permissive for mandipropamid responsiveness (S. Y. Park et al., n.d.), and sought to test whether residues other than leucine at position 159 might function better in the context of simultaneous changes to both A160 and M158. The mutagenic primer was used in QuickChange mutagenesis reactions using pBD-PYR1^!-MANDI template, and a library of ˜12,000 clones was generated. Plasmid DNA for the library was prepared from pooled E. coli transformants, and subsequently transformed into S. cerevisiae strain MAV99 harboring pACT-HAB1^!-2. ˜20,000 yeast transformants were generated, pooled, and plated onto SD(-Leu,-Trp) agar media supplemented with 0.1% fluorotic acid (to select against mutants that interact in a ligand-independent fashion). The surviving cells were collected and plated onto SD(Leu,-Trp,-Ura) plates supplemented with 50 nM mandipropamid. The colonies displaying the best uracil-independent growth were isolated and retested on different mandipropamid concentrations and then stained in β-galactosidase assays to rank their relative strength.

| Molecule | GFP production (pUAS_GFP_mandi) | mandipropamid concentration to which the interaction responds (HAB1^!-2; FIG. 3, FIG. 4) | relative mandipropamid sensitivity among selected mutants (HAB1^!-2; β-galactosidase assays on different mandipropamid concentrations) |
| --- | --- | --- | --- |
| C#CCOc1ccc(CCNC(=O)C(OCC#C)c2ccc(Cl)cc2)cc1OC (stereo not drawn) [mandipropamid] | mandipropamid inducible GFP production | – | – |
| B1 | – | nM levels | most sensitive mutant |
